Test results as given in PMC9671922, “TOPOVIBL-REC114 interaction regulates meiotic DNA double-strand breaks” (Nature Communications, 2022).

T1: REC114^15–159 (REC114 PH domain) (mouse, UniProt Q9CWH4 15-159)
T1 construct: Expressed from pProEXHTb; His-tag cleaved with TEV protease; source: E. coli BL21-Gold (DE3), purified (Ni2+ resin, TEV cleavage, second Ni2+ column, Superdex 200)
T1 sequence (looked up): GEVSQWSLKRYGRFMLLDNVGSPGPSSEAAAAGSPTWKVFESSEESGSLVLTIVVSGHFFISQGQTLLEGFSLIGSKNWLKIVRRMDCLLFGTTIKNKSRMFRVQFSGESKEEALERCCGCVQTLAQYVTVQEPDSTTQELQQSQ

B1: 6xHis-TOPOVIBL C-terminal domain (CTD; 452–579) (domain or fragment, mouse, UniProt J3QMY9 452-579, looked up)
chain: SCDTEQHLTPEKNISAQNTKDQHKNIAQEFPEESIGQAENKRPKRGSPNHGREESRVLGSARDRSPPKSATRDRELTEVSLTARGSQTQAAHGRAQAAEAASPAGGLEDLWLQEVSNLSEWLNPGHRS
notes: Cloned in pProEXHTb; also called TOPOVIBL CTD; source: E. coli BL21Gold (DE3), purified (Ni-Chelating Sepharose, Superdex 200)
B2: TOPOVIBL^559–576 peptide (peptide)
peptide: EDLWLQEVSNLSEWLNPG
notes: also called TOPOVIBL peptide; TOPOVIBL C-terminal peptide

Biological target: T1, REC114^15–159 (REC114 PH domain)
Experiment: ITC; 25 °C, ITC200; 0.3-1.8 mM TOPOVIBL injected into 30-40 µM REC114 in the cell; 20 mM Tris pH 8.0, 100 mM NaCl, 5% glycerol, 5 mM β-mercaptoethanol; one-site model
Conditions: both partners purified

Binder | Kd
B1 | 1200 nM
B2 | 3300 nM
